In patent publication US20190169313A1:

Target: D-dimer
Assay: detection of D-dimer; format not described

For “mouse monoclonal antibody AB424 directed to GGEL (Abcam, catalog number AB424)”, which titer is on record?
Its titer is 0.6 µg/mL.
